Target: high-stability mutant of the MMP-9 catalytic domain lacking the fibronectin-like domain (MMP9CAT*) (human) (UniProt P14780)
Test: enzymatic activity inhibition assay

Binder | Ki [nM]
N-TIMP2 (WT N-terminal domain of TIMP2 containing internal FLAG-tag, c-myc-tag and His-tag) (domain or fragment) CSCSPVHPQQAFCNADVVIRAKAVSEKEVDSGNDIYGNPIKRIQYEIKQIKMFKGPEDIEFIYTAPSSAVCGVSLDVGGKKEYLIAGKAEGDGKMHITLCDFIVPWDTLSTTQKKSLNHRYQMGCE | 0.32
N-TIMP2-PAT100 (protein) CSCSPVHPQQAFCNADVVIRAKAVSEKEVDSGNDIYGNPIKRIQYEIKQIKMFKGPEDIEFIYTAPSSAVCGVSLDVGGKKEYLIAGKAEGDGKMHITLCDFIVPWDTLSTTQKKSLNHRYQMGCETAPAAPATPAPTAPTPTPAAPAPTTPATPAPTPAAPAPAPTAPTAPAAPTAPATPAAPTTPTPTTPTPATPTPTAPAPATPTTPTPTAPAAPTPAPTTPA | 0.24
N-TIMP2-PAT200 (protein) CSCSPVHPQQAFCNADVVIRAKAVSEKEVDSGNDIYGNPIKRIQYEIKQIKMFKGPEDIEFIYTAPSSAVCGVSLDVGGKKEYLIAGKAEGDGKMHITLCDFIVPWDTLSTTQKKSLNHRYQMGCEATPTPAPTAPTTPTPTPTTPAPTTPTTPATPAPTTPATPAPTPATPTPAAPAPTTPTPAAPAPTPATPTAPAPTTPTAPTAPTPATPATPAAPTPTPTTPTTPTAPAAPTPTAPTAPAPTAPTAPTAPATPAAPATPTPAPTAPATPTPAAPTTPTAPTPTPTPAPATPAAPAPTPATPAAPTTPAAPTAPAAPTTPTPT | 0.59

Source: publication PMC11230438
